Assay results published in patent US20230407373A1 (priority 2020, published 2023).

B1: RBM47: host protein, UniProt A0AV96 (protein, UniProt A0AV96 1-593, looked up)
RNA-binding protein 47: MTAEDSTAAMSSDSAAGSSAKVPEGVAGAPNEAALLALMERTGYSMVQENGQRKYGGPPPGWEGPHPQRGCEVFVGKIPRDVYEDELVPVFEAVGRIYELRLMMDFDGKNRGYAFVMYCHKHEAKRAVRELNNYEIRPGRLLGVCCSVDNCRLFIGGIPKMKKREEILEEIAKVTEGVLDVIVYASAADKMKNRGFAFVEYESHRAAAMARRKLMPGRIQLWGHQIAVDWAEPEIDVDEDVMETVKILYVRNLMIETTEDTIKKSFGQFNPGCVERVKKIRDYAFVHFTSREDAVHAMNNLNGTELEGSCLEVTLAKPVDKEQYSRYQKAARGGGAAEAAQQPSYVYSCDPYTLAYYGYPYNALIGPNRDYFVKAGSIRGRGRGAAGNRAPGPRGSYLGGYSAGRGIYSRYHEGKGKQQEKGYELVPNLEIPTVNPVAIKPGTVAIPAIGAQYSMFPAAPAPKMIEDGKIHTVEHMISPIAVQPDPASAAAAAAAAAAAAAAVIPTVSTPPPFQGRPITPVYTVAPNVQRIPTAGIYGASYVPFAAPATATIATLQKNAAAAAAMYGGYAGYIPQAFPAAAIQVPIPDVYQTY
B2: EWSR1: host protein, UniProt Q01644 (protein, UniProt Q01844 1-656, looked up)
RNA-binding protein EWS: MASTDYSTYSQAAAQQGYSAYTAQPTQGYAQTTQAYGQQSYGTYGQPTDVSYTQAQTTATYGQTAYATSYGQPPTGYTTPTAPQAYSQPVQGYGTGAYDTTTATVTTTQASYAAQSAYGTQPAYPAYGQQPAATAPTRPQDGNKPTETSQPQSSTGGYNQPSLGYGQSNYSYPQVPGSYPMQPVTAPPSYPPTSYSSTQPTSYDQSSYSQQNTYGQPSSYGQQSSYGQQSSYGQQPPTSYPPQTGSYSQAPSQYSQQSSSYGQQSSFRQDHPSSMGVYGQESGGFSGPGENRSMSGPDNRGRGRGGFDRGGMSRGGRGGGRGGMGSAGERGGFNKPGGPMDEGPDLDLGPPVDPDEDSDNSAIYVQGLNDSVTLDDLADFFKQCGVVKMNKRTGQPMIHIYLDKETGKPKGDATVSYEDPPTAKAAVEWFDGKDFQGSKLKVSLARKKPPMNSMRGGLPPREGRGMPPPLRGGPGGPGGPGGPMGRMGGRGGDRGGFPPRGPRGSRGNPSGGGNVQHRAGDWQCPNPGCGNQNFAWRTECNQCKAPKPEGFLPPPFPPPGGDRGRGGPGGMRGGRGGLMDRGGPGGMFRGGRGGDRGGFRGGRGMDRGGFGGGRRGGPGGPPGPLMEQMGGRRGGRGGPGKMDKGEHRQERRDRPY
B3: CNBP: host protein, UniProt P62633 (protein, UniProt P62633 2-177, looked up)
CCHC-type zinc finger nucleic …: SSNECFKCGRSGHWARECPTGGGRGRGMRSRGRGGFTSDRGFQFVSSSLPDICYRCGESGHLAKDCDLQEDACYNCGRGGHIAKDCKEPKREREQCCYNCGKPGHLARDCDHADEQKCYSCGEFGHIQKDCTKVKCYRCGETGHVAINCSKTSEVNCYRCGESGHLARECTIEATA
B4: HNRNPH1 (protein, UniProt P31943 1-449, looked up)
Heterogeneous nuclear …: MMLGTEGGEGFVVKVRGLPWSCSADEVQRFFSDCKIQNGAQGIRFIYTREGRPSGEAFVELESEDEVKLALKKDRETMGHRYVEVFKSNNVEMDWVLKHTGPNSPDTANDGFVRLRGLPFGCSKEEIVQFFSGLEIVPNGITLPVDFQGRSTGEAFVQFASQEIAEKALKKHKERIGHRYIEIFKSSRAEVRTHYDPPRKLMAMQRPGPYDRPGAGRGYNSIGRGAGFERMRRGAYGGGYGGYDDYNGYNDGYGFGSDRFGRDLNYCFSGMSDHRYGDGGSTFQSTTGHCVHMRGLPYRATENDIYNFFSPLNPVRVHIEIGPDGRVTGEADVEFATHEDAVAAMSKDKANMQHRYVELFLNSTAGASGGAYEHRYVELFLNSTAGASGGAYGSQMMGGMGLSNQSSYGGPASQQLSGGYGGGYGGQSSMSGYDQVLQENSSDFQSNIA
B5: TIAL1: host protein, UniProt Q01085 (protein, UniProt Q01085 1-375, looked up)
Nucleolysin TIAR: MMEDDGQPRTLYVGNLSRDVTEVLILQLFSQIGPCKSCKMITEHTSNDPYCFVEFYEHRDAAAALAAMNGRKILGKEVKVNWATTPSSQKKDTSNHFHVFVGDLSPEITTEDIKSAFAPFGKISDARVVKDMATGKSKGYGFVSFYNKLDAENAIVHMGGQWLGGRQIRTNWATRKPPAPKSTQENNTKQLRFEDVVNQSSPKNCTVYCGGIASGLTDQLMRQTFSPFGQIMEIRVFPEKGYSFVRFSTHESAAHAIVSVNGTTIEGHVVKCYWGKESPDMTKNFQQVDYSQWGQWSQVYGNPQQYGQYMANGWQVPPYGVYGQPWNQQGFGVDQSPSAAWMGGFGAQPPQGQAPPPVIPPPNQAGYGMASYQTQ
B6: HNRNPA0 (protein, UniProt Q13151 1-305, looked up)
Heterogeneous nuclear …: MENSQLCKLFIGGLNVQTSESGLRGHFEAFGTLTDCVVVVNPQTKRSRCFGFVTYSNVEEADAAMAASPHAVDGNTVELKRAVSREDSARPGAHAKVKKLFVGGLKGDVAEGDLIEHFSQFGTVEKAEIIADKQSGKKRGFGFVYFQNHDAADKAAVVKFHPIQGHRVEVKKAVPKEDIYSGGGGGGSRSSRGGRGGRGRGGGRDQNGLSKGGGGGYNSYGGYGGGGGGGYNAYGGGGGGSSYGGSDYGNGFGGFGSYSQHQSSYGPMKSGGGGGGGGSSWGGRSNSGPYRGGYGGGGGYGGSSF
B7: RBM14: host protein, UniProt Q96PK6 (protein, UniProt Q96PK6 1-669, looked up)
RNA-binding protein 14: MKIFVGNVDGADTTPEELAALFAPYGTVMSCAVMKQFAFVHMRENAGALRAIEALHGHELRPGRALVVEMSRPRPLNTWKIFVGNVSAACTSQELRSLFERRGRVIECDVVKDYAFVHMEKEADAKAAIAQLNGKEVKGKRINVELSTKGQKKGPGLAVQSGDKTKKPGAGDTAFPGTGGFSATFDYQQAFGNSTGGFDGQARQPTPPFFGRDRSPLRRSPPRASYVAPLTAQPATYRAQPSVSLGAAYRAQPSASLGVGYRTQPMTAQAASYRAQPSVSLGAPYRGQLASPSSQSAAASSLGPYGGAQPSASALSSYGGQAAAASSLNSYGAQGSSLASYGNQPSSYGAQAASSYGVRAAASSYNTQGAASSLGSYGAQAASYGAQSAASSLAYGAQAASYNAQPSASYNAQSAPYAAQQAASYSSQPAAYVAQPATAAAYASQPAAYAAQATTPMAGSYGAQPVVQTQLNSYGAQASMGLSGSYGAQSAAAATGSYGAAAAYGAQPSATLAAPYRTQSSASLAASYAAQQHPQAAASYRGQPGNAYDGAGQPSAAYLSMSQGAVANANSTPPPYERTRLSPPRASYDDPYKKAVAMSKRYGSDRRLAELSDYRRLSESQLSFRRSPTKSSLDYRRLPDAHSDYARYSGSYNDYLRAAQMHSGYQRRM

Each molecule was assayed on SARS-CoV-2 gRNA. Conditions: […]; LC-MS/MS; Probe I sample (first 199 lines of Table 2).
Type: binding

Row | Molecule | target (unweighted spectral count of the protein in the RNP capture)
1 | B1 | 12
2 | B2 | 9
3 | B3 | 74
4 | B4 | 78
5 | B5 | 10
6 | B6 | 12
7 | B7 | 9

The molecules below were run on SARS-CoV-2 gRNA and sgRNAs. Conditions: Probe II capture; […]; LC-MS/MS LFQ.
Type: binding

Row | Molecule | target (unweighted spectral count in RNP capture)
8 | B2 | 7
9 | B3 | 44
10 | B4 | 61
11 | B5 | 25
12 | B6 | 9
13 | B7 | 10

Same assay, conditions: no-probe control pull-down, used as background for Probe II

Row | Molecule | background (unweighted spectral count in control)
14 | B1 | 1
15 | B2 | 1
16 | B3 | 1
17 | B4 | 1
18 | B5 | 1
19 | B6 | 1
20 | B7 | 1

The molecules below were run on gRNA of HCoV-OC43. Conditions: type g_36_m; HCoV-OC43-infected HCT-8 cells, 36 hpi, Probe I.
Type: binding

Row | Molecule | target (spectral count)
21 | B1 | 28
22 | B3 | 15
23 | B7 | 20

Same assay, conditions: type g_36_m; uninfected-probe control, 36 hpi, Probe I

Row | Molecule | background (spectral count)
24 | B1 | 5
25 | B3 | 2
26 | B7 | 2

Same assay, conditions: type n_48_v: 48 hours post-infection, infected cells, OC43 Probe I; unweighted spectral count

Row | Molecule | target (spectral count, OC43 Probe I RNP capture)
27 | B1 | 26
28 | B2 | 8
29 | B3 | 22
30 | B4 | 49
31 | B5 | 11
32 | B6 | 12
33 | B7 | 19

Same assay, conditions: type n_48_v: 48 hours post-infection, no-probe control on infected cells

Row | Molecule | background (spectral count, no-probe control)
34 | B1 | 2
35 | B2 | 1
36 | B3 | 2
37 | B4 | 6
38 | B5 | 1
39 | B6 | 2
40 | B7 | 2

Each molecule was assayed on HCoV-OC43 gRNA and sgRNA. Conditions: 36 hpi; type n_36_v; tested against no-probe control; FDR<10%.
Type: binding

Row | Molecule | target (unweighted spectral count, OC43 Probe II capture)
41 | B1 | 31
42 | B2 | 9
43 | B3 | 14
44 | B4 | 36
45 | B5 | 9
46 | B6 | 12
47 | B7 | 14

Same assay, conditions: OC43 Probe II, 12 hpi (type n_12_v), infected cells; tested against no-probe control

Row | Molecule | target (unweighted spectral count)
48 | B1 | 10
49 | B3 | 5
50 | B4 | 15
51 | B7 | 5

Same assay, conditions: OC43 Probe II, 24 hpi (type n_24_v), infected cells; tested against no-probe control

Row | Molecule | target (unweighted spectral count)
52 | B2 | 6
53 | B3 | 12
54 | B5 | 7

Same assay, conditions: type n_48_v; 48 hpi; OC43 Probe II capture on infected cells

Row | Molecule | target (unweighted spectral count, OC43 Probe II)
55 | B1 | 27
56 | B2 | 10
57 | B3 | 19
58 | B4 | 53
59 | B5 | 11
60 | B6 | 13
61 | B7 | 17

Same assay, conditions: type n_48_v; 48 hpi; no-probe control on infected cells

Row | Molecule | background (unweighted spectral count, no-probe control)
62 | B1 | 2
63 | B2 | 1
64 | B3 | 2
65 | B4 | 6
66 | B5 | 1
67 | B6 | 2
68 | B7 | 2

Same assay, conditions: type s_36_m; HCoV-OC43-infected HCT-8 cells, 36 hpi, Probe II

Row | Molecule | target (spectral count)
69 | B1 | 31
70 | B2 | 9
71 | B5 | 9

Same assay, conditions: type s_36_m; uninfected-probe control, 36 hpi, Probe II

Row | Molecule | background (spectral count)
72 | B1 | 6
73 | B2 | 1
74 | B5 | 1
